From publication PMC13036491, “RNA binding protein Musashi1 interacts with the viral genomic RNA and restricts SARS-CoV-2 infection by repressing translation” come the findings set out here.

The target in this series is GST-Msi1 (Homo sapiens, UniProt O43347 1-362). In words: EMSA; GST-Msi1 ~1.5-9 uM; dose-dependent. As to conditions: protein: recombinant; tags: N-terminal GST (pGEX 5X-2); label: fluorescein-12-UTP. A general note: A gel shift assay detects complexes by their altered migration in electrophoresis.
Sequence of GST-Msi1 (O43347 whole entry): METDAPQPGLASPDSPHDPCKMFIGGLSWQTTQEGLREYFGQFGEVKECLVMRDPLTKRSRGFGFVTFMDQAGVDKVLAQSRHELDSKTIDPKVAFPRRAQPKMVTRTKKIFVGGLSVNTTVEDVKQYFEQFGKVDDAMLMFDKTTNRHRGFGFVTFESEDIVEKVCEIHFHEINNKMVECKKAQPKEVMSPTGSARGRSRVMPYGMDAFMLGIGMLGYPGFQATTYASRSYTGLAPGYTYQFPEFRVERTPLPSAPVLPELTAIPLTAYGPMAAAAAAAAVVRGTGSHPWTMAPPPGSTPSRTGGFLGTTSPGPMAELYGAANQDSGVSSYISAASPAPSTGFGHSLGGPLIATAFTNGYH

B1: M2 RNA (HVR MBE) (ssRNA)
RNA: GGGAUUUUAGUAGUGCUAUCCCCA
B1: the binding result is “binds”.
